Drawing on article PMC7862519, this text covers binding signal (relative dEOT/EOT0 x10^-3) for 1 sequence.

In data set [1] the target is D2N (D2 without his tag) (Geobacillus stearothermophilus T-6) (UniProt B3EYN2). The experiment in a line: reflectometric porous-silicon aptasensor (real-time EOT). Particulars: 1 uM protein, 5'-amino, Selection buffer: 50 mM K2HPO4, 150 mM NaCl, pH 7.4, flow 30 uL/min for 1 h, temperature not stated, elution with 1 M imidazole.
In data set [2] the target is D2 (his-tagged domain 2 of extracellular endo-alpha-(1->5)-L-arabinanase 1) (Geobacillus stearothermophilus T-6) (UniProt B3EYN2). The description is as above. Particulars: 5'-amino, Selection buffer: 50 mM K2HPO4, 150 mM NaCl, pH 7.4, flow 30 uL/min for 1 h, temperature not stated, elution with 1 M imidazole.

“GCTATGGGTGGTCTGGTTGGGATTGGCCCCGGGAGCTGGC [anti-his tag aptamer 6H7]”: the binding signal (relative dEOT/EOT0 x10^-3) in data set [1] (PDMS microfluidic, ascribed to non-specific adsorption) was 1.7; in data set [1] (3D-printed microfluidic), 0.8; in data set [2] (0.25 uM protein, 3D-printed microfluidic), 1.6; in data set [2] (0.5 uM protein, 3D-printed microfluidic, reused sensor) it was 2.3; in data set [2] (1 uM protein, 3D-printed microfluidic, released by 1 M imidazole), 4; in data set [2] (1 uM protein, PDMS microfluidic, signal partly non-specific adsorption), 3.2.
